The record followed here is article PMC5399129.

Assay [1] deals with Methanococcoides burtonii Rubisco (MbR), wild type, H6-Ub tag cleaved (Methanococcoides burtonii). The assay can be described thus: crystal structure; MbR activated (10 mM NaHCO3, 10 mM MgCl2) and incubated with a 10-fold molar excess of 2-CABP; hanging drop, room temperature; 2.6 Å; five LSus in the asymmetric unit, L10 by crystallographic symmetry.
The target is the same in assay [2]. The assay can be described thus: native gel or EMSA; non-denaturing PAGE of purified, activated MbR incubated without 2-CABP: with 4-CABP or XuBP (1x, 10x molar), 3-PGA (1x, 10x, 1000x molar) or crystallization buffer alone, 1 h at room temperature; step: L2 dimers to higher oligomers. For orientation: A gel shift assay detects complexes by their altered migration in electrophoresis.

For assay [3], the target named is MbR E179A (Methanococcoides burtonii). Description: native gel or EMSA; non-denaturing PAGE (4-15% gel; 25 mM Tris, 0.19 M glycine, pH 8.3) of activated MbR incubated with 1x or 10x molar 2-CABP (relative to active sites) for 1 h at room temperature; step: L2 dimers to higher oligomers up to L10; some 2-CABP-bound samples were then incubated with 20 or 40 mM EDTA for 30 min, which did not pull the higher order complexes apart.

For assay [4], the target named is MbR D183A (Methanococcoides burtonii). Described as above.
Assay [5] has as its target MbR D366A (Methanococcoides burtonii). The description is as above.

Usually stoichiometry N stands for a count of units in the complex or per binding partner.

With “Methanococcoides burtonii Rubisco (MbR), wild type, H6-Ub tag cleaved (enzyme)”, the stoichiometry N in assay [1] amounted to 10; in assay [2], 2. MbR E179A (enzyme): the stoichiometry N in assay [3] was found to be 2. Take MbR D183A (enzyme): the stoichiometry N in assay [4] came to 10. In the case of MbR D366A (enzyme), the stoichiometry N in assay [5] stood at 10.
